Consider two molecules from US20220251176A1 (GREEN CROSS, published 2022).

B1: recombinant human CD3 (receptor)
chain: DGNEEMGGITQTPYKVSISGTTVILTCPQYPGSEILWQHNDKNIGGDEDDKNIGSDEDHLSLKEFSELEQSGYYVCYPRGSKPEDANFYLYLRARVCENCMEMD
B2: anti-MSLN/anti-CD3 bispecific antibody HMI323/HMI323-A15 (bispecific antibody, human IgG1, kappa, lambda, L234A L235A)
chain 1: DIQMTQSPSSLSASVGDRVTITCRASQDVSTAVAWYQQKPGKAPKLLIYSASYRYPGVPSRFSGSGSGTDFTLTISSLQPEDFATYYCQQHYSTPWTFGGGTKLEIKRTVAAPSVFIFPPSDEQLKSGTASVVCLLNNFYPREAKVQWKVDNALQSGNSQESVTEQDSKDSTYSLSSTLTLSKADYEKHKVYACEVTHQGLSSPVTKSFNRGECSGGGSGGGSEGGGSEGGGSEGGGSEGGGSGGGSGEVQLVQSGAEVKKPGTSVKVSCKASGYSFTSYFIQWVRQAPGQGLEWIGWIFPGSGNTKYSQKFQGRVTITRDTSTSTAYMELSSLRSEDTAVYYCARSGGYQYYFDYWGQGTLVTVSSASTKGPSVFPLAPSSKSTSGGTAALGCLVKDYFPEPVTVSWNSGALTSGVHTFPAVLQSSGLYSLSSVVTVPSSSLGTQTYICNVNHKPSNTKVDKKVGGGGSGGGGSGGGGSQAVVTQEPSLTVSPGGTVTLTCRSSTGAVTTSNYANWVQQKPGQAPRGLIGGTNKRAPWTPARFSGSLLGGKAALTLSGAQPEDEAEYYCALWYSNLWVFGGGTKLTVLGQPKANPTVTLFPPSSEELQANKATLVCLISDFYPGAVTVAWKADGSPVKAGVETTKPSKQSNNKYAASSYLSLTPEQWKSHRSYSCQVTHEGSTVEKTVAPTECSGGGSGGGSEGGGSEGGGSEGGGSEGGGSGGGSGEVQLVESGGGLVQPGGSLKLSCAASGFTFNTYAMNWVRQASGKGLEWVGRIRSKYNNYATYYADSVKDRFTISRDDSKNTAYLQMNSLKTEDTAVYYCVRHGNFGNSYVSWFAYWGQGTLVTVSSASTKGPSVFPLAPSSKSTSGGTAALGCLVKDYFPEPVTVSWNSGALTSGVHTFPAVLQSSGLYSLSSVVTVPSSSLGTQTYICNVNHKPSNTKVDKKVEPKSCDKTHTCPPCPAPEAAGGPSVFLFPPKPKDTLMISRTPEVTCVVVDVSHEDPEVKFNWYVDGVEVHNAKTKPREEQYNSTYRVVSVLTVLHQDWLNGKEYKCKVSNKALPAPIEKTISKAKGQPREPRVYTLPPCRDELTKNQVSLTCLVKGFYPSDIAVEWESNGQPENNYKTTPPVLVSDGSFTLYSKLTVDKSRWQQGNVFSCSVMHEALHNHYTQKSLSLSPG
chain 2: DIQMTQSPSSLSASVGDRVTITCRASQDVSTAVAWYQQKPGKAPKLLIYSASYRYPGVPSRFSGSGSGTDFTLTISSLQPEDFATYYCQQHYSTPWTFGGGTKLEIKRTVAAPSVFIFPPSDEQLKSGTASVVCLLNNFYPREAKVQWKVDNALQSGNSQESVTEQDSKDSTYSLSSTLTLSKADYEKHKVYACEVTHQGLSSPVTKSFNRGECSGGGSGGGSEGGGSEGGGSEGGGSEGGGSGGGSGEVQLVQSGAEVKKPGTSVKVSCKASGYSFTSYFIQWVRQAPGQGLEWIGWIFPGSGNTKYSQKFQGRVTITRDTSTSTAYMELSSLRSEDTAVYYCARSGGYQYYFDYWGQGTLVTVSSASTKGPSVFPLAPSSKSTSGGTAALGCLVKDYFPEPVTVSWNSGALTSGVHTFPAVLQSSGLYSLSSVVTVPSSSLGTQTYICNVNHKPSNTKVDKKVEPKSCDKTHTCPPCPAPEAAGGPSVFLFPPKPKDTLMISRTPEVTCVVVDVSHEDPEVKFNWYVDGVEVHNAKTKPREEQYNSTYRVVSVLTVLHQDWLNGKEYKCKVSNKALPAPIEKTISKAKGQPREPQVCTLPPSRDELTENQVSLTCLVKGFYPSDIAVEWESNGQPENNYKTTPPVLDSDGSFFLYSWLTVDKSRWQQGNVFSCSVMHEALHNHYTQKSLSLSPG
notes: Knob-into-hole heterodimer of two single chains, 2+1 IgG format

For test [1], the target named is T1, anti-EGFR/anti-MSLN/anti-CD3 trispecific antibody Cetuximab/HMI323-A15.
T1 construct: Trispecific antibody: knob-into-hole heterodimer of two single chains, 2+1 IgG format
Kind of test: BLI (Octet), antigen immobilised on APS sensor, antibody 6.25-100 nM.

The target in test [2] is T2, MSLN on H226 and AsPC-1 cancer cell lines (UniProt Q13421 296-598). Kind of test: cell-based or functional assay.
T2 sequence (Q13421 other isoform, or with tags, fused parts or gaps limits assumed): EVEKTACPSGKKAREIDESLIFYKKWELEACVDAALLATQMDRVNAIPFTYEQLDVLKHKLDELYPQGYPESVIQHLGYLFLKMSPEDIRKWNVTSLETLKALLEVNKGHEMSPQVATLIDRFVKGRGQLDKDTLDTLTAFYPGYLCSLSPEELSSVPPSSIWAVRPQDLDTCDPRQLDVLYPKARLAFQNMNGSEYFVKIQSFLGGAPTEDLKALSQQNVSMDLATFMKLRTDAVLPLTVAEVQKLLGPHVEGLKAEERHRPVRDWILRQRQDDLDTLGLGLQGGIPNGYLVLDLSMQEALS
The next test concerns the target T3, recombinant human MSLN (human, UniProt Q13421 296-580, limits assumed).
T3 construct: Immobilised on an APS sensor in the Octet assay; also called mesothelin
Kind of test: BLI (Octet), antigen immobilised on APS sensor, antibody 6.25-100 nM.

The test “recombinant human CD3” deals with B1. The test is described as above.
Test [3] has as its target T4, CD3 on Jurkat E6-1 T cell line (UniProt P07766 23-207).
T4 construct: whole, on cells; On the cells CD3 is the whole complex
Kind of test: flow cytometry on Jurkat E6-1 cells (express CD3), PE anti-human IgG.
Description: (§1) Then, light was blocked for one and a half hours and incubation was performed at 4° C. Subsequently, 200 μl of FACS buffer was added thereto. Centrifugation was performed at 2,000 rpm for 3 minutes at 4° C., and then the supernatant was removed.
(§2) Then, light was blocked for 30 minutes and incubation was performed at 4° C. Subsequently, 200 μl of FACS buffer was added thereto, and centrifugation was performed at 2,000 rpm for 3 minutes at 4° C.; and then the supernatant was removed to obtain a sample.
(§3) 200 μl of BD CYTOFIX™ was added to the sample so that the cells were suspended, and analysis was performed by BD LSR FORTESSA™.

Test [4] concerns the target T2, MSLN on H226 and AsPC-1 cancer cell …. Kind of test: flow cytometry on H226 cells (overexpress MSLN and EGFR), PE anti-human IgG.
Description: as §1, §2, §3
Test [5] shares this target. Kind of test: flow cytometry on AsPC-1 cells (overexpress MSLN and EGFR), PE anti-human IgG.
Description: as §1, §2, §3

T3 sequence (Q13421 other isoform, or with tags, fused parts or gaps limits assumed): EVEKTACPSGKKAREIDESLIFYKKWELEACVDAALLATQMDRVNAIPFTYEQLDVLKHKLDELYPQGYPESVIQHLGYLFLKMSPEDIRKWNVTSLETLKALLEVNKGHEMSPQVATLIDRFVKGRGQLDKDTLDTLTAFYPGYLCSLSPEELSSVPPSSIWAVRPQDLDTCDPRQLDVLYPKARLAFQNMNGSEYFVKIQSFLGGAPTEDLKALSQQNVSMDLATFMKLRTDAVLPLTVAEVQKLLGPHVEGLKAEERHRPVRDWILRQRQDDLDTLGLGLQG

In test [1], B1 had a dissociation constant Kd of 13.5 nM, a koff of 0.00625 s⁻¹ and a kon of 463000 M⁻¹ s⁻¹.
For B2, in test [2], the “IC50 of PBMC-mediated cell killing; AsPC-1; PBMC:target cell 10:1; 24 hr” value worked out at 406 pM, the “IC50 of PBMC-mediated cell killing; AsPC-1; PBMC:target cell 10:1; 48 hr” value came out at 144 pM, the “IC50 of PBMC-mediated cell killing; AsPC-1; PBMC:target cell 20:1; 48 hr” value was determined as 30.4 pM and the “IC50 of PBMC-mediated cell killing; H226; PBMC:target cell 10:1; 24 hr” value is 84.4 pM. Also, in test [2], the “IC50 of PBMC-mediated cell killing; H226; PBMC:target cell 10:1; 48 hr” value is 50.3 pM and the “IC50 of PBMC-mediated cell killing; H226; PBMC:target cell 20:1; 48 hr” value amounted to 15.3 pM. In addition, in the test with recombinant human MSLN, the Kd came to 7.79 nM, the off-rate constant (koff) was found to be 0.000774 s⁻¹ and the kon came out at 99400 M⁻¹ s⁻¹. Besides, in the test with recombinant human CD3, the Kd was 52.6 nM, the off-rate (koff) was determined as 0.0242 s⁻¹ and the kon was found to be 461000 M⁻¹ s⁻¹. Also, the midpoint of the response in test [3], the EC50, lay at 58 nM. In test [4], this molecule registered an EC50 of 6.2 nM. The molecule further returned an EC50 in test [5] of 4.7 nM.
